Here are results for two molecules from patent US20240301051A1 (BEIGENE SWITZERLAND, published 2024).

The target of one assay is T1, human claudin 9 (CLDN9) (human, UniProt O95484 1-217).
T1 construct: also called human CLDN9
T1 sequence: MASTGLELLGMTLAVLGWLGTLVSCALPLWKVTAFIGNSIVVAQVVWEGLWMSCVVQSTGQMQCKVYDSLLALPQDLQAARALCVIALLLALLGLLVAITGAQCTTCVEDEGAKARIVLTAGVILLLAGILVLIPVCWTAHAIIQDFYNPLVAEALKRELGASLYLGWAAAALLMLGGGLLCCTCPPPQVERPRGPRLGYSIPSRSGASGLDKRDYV
Briefly: flow cytometry on HEK293T/human CLDN9 cells (non-specific binding validation).

The target of a further assay is T2, human claudin 6 (CLDN6) (human, UniProt P56747 1-220).
T2 construct: also called human CLDN6; hCLDN6
T2 sequence: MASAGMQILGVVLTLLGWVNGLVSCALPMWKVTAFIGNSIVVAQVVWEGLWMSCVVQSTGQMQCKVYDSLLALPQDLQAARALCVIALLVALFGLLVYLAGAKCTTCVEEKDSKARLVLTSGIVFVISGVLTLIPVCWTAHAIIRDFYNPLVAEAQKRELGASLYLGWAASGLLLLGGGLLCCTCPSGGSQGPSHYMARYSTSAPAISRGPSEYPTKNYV
Put plainly: flow cytometry on HEK293T/human CLDN6 cells. The protocol: For affinity determination, CLDN6 over-expressing HEK293T cells and cancer cell line PA-1 which express high levels of human CLDN6 were used to evaluate the binding activity of BG87P related engineering variants. Live cells were seeded in 96-well plate, and were incubated with a series of dilutions of chBG87P and engineered variants thereof. Goat anti-human IgG was used as second antibody to detect antibody binding to the cell surface. EC50 values for dose-dependent binding to CLDN6 expressing cell lines were determined by fitting the dose-response data to the four-parameter logistic model with GraphPad Prism. Cell binding activity of 1st round of BG87P humanization variants against HEK293T/human CLDN6 were compared to chBG87P and shown in FIG. 1A.

Changes are numbered by the printed parent chain.

B1: BG87P-34 (antibody, V domains shown)
VH: EVQLQESGGGLVQPGGSLRLSCAASGYSFSDYHINWVRQAPGKGLEWVGYIYPGSGHTKYNEKFKGRFTISRDTSSNTAYLQMNSLRAEDTAVYYCARSGIYHYVSSYYFDHWGQGTLVTVSS
VL: DIQMTQSPSSLSASVGDRVTITCKASQDAGSAVAWYQQKPGKAPKLLIYWASTRHTGVPSRFSGSGSGTDFTLTISSLQPEDFATYYCQQYSSYTFGGGTKLEIK
notes: Final lead clone, framework IGHV3-23 and IGKV1-39; also called BG87-34
Take B1: the binding result with human claudin 9 (CLDN9) is given as “no binding”.

B2: BG87P-33 (antibody, V domains shown)
VH: B1 VH with S30T, G49S, S76K
VL: B1 VL with S10T, D70E, E81D, L102V
notes: Framework-swapped variant; also called BG87-33
In the case of B2, in the assay with human claudin 6 (CLDN6), the “EC50 (read off the curve)” value is ~30 nM.
